Measured values as given in the supplement of paper PMC12042874.
± gives the uncertainty stated by the source.

Test: amyloid nucleation score (Sup35N fusion, yeast selection) (log enrichment); library NNK1; higher = more nucleation; inactive = no reads after selection
Outline: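 Nucleation score is defined as the DiMSum log enrichment of output over input reads, with centring on the mode score of non-aggregating sequences. A minimum of 100 input reads was required for each sequence. Reads came from Illumina sequencing of plasmid inserts from psi-negative yeast expressing Sup35N fused to peptides of 20 random codons, induced with 100 μM copper sulfate for 24 hours and grown 7 days at 30°C on medium lacking adenine and uracil.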

Substance | amyloid nucleation score
CCIVSGFALSSTTRMNVR | 1.77 ± 0.15
CCLGRR | -0.151 ± 0.52
CCTDIISQRIVGYLMVVC | -0.755 ± 0.68
CCWSYR | 2.51 ± 0.13
CDFAYRDWCHKMRYRYTRPC | 0.38 ± 0.39
CDKGPGCWVRMKQPGRLQMG | 3.46 ± 0.076
CDRAIPLSIHTELMYRRSRG | 1.11 ± 0.38
CEFGSGQALIYGYTMYTWTT | 0.703 ± 0.49
CESQMSRVDVLSCYMYGSVM | 0.303 ± 0.4
CEVRFLCWYGFIWRYN | -0.336 ± 0.74
CEWAAGRTWMKLGSSSTKTK | 3.87 ± 0.12
CFCVD | 1.01 ± 0.19
CFDNIGGCFNPHDY | -0.184 ± 0.43
CFDVQ | 2.29 ± 0.61
CFFFPPEYTKRLKSSSMVRR | -0.652 ± 0.9
CFIGANPLRNQWMRSTRIVP | 0.28 ± 0.61
CFLSLVWQHGHWWEGLESRL | 0.714 ± 0.53
CFMCTGAGCILNEMPRNLLG | 7.793 ± 0.071
CFSKLEISFDESFR | -0.154 ± 0.28
CFTKIFDDYSWCFGAGANQS | 0.348 ± 0.28
CFVPY | -0.109 ± 0.53

Substance | amyloid nucleation score
CFYMVSFEFR | 1.12 ± 0.34
CGFKLVVVCFMK | 3.47 ± 0.2
CGGTNILWVRSLPHGLDVHD | -0.204 ± 0.39
CGLERTCRRGPSELTCTLYE | -0.201 ± 0.56
CGNSFTKLTTMLTRHHIADG | 0.437 ± 0.38
CGQLACVEPNWLSIKVMFRN | inactive
CHCCEVSWCSVWKVCIYCNI | 5 ± 0.088
CHCGVL | 0.702 ± 1.1
CHEALDLMCHADTVIFALAE | -0.216 ± 0.57
CHEQHSASREYVDREYGKYS | inactive
CHSTGGT | -0.468 ± 1.9
CIDCYYRVCRFWSDSQAR | 0.552 ± 0.74
CIFGHWAFFDCNCYILYVLY | 2.27 ± 0.23
CIGTHRIRFNSLLYRDQPII | -0.15 ± 0.86
CIISNVCTRVGGKMGSYGYS | 0.133 ± 0.4
CILGNME | inactive
CILLYMQKSIGFGNSVKFAF | inactive
CILVARKAVLNCGGWKRSVR | 6.27 ± 0.067
CILWDWMYEGMKTSEGIFDR | 0.118 ± 0.71
CIMLRMFVYESYSVCVVVA | inactive
CITANMDENLVSRIRWASEY | 0.462 ± 0.79

Substance | amyloid nucleation score
CKEINL | -0.374 ± 0.6
CKRRIQMKLLS | -0.244 ± 0.37
CKTCFTLRKIF | -0.461 ± 0.38
CKVSSSFS | 0.258 ± 0.34
CKYVRTQVWSHRLPADNCLT | -0.997 ± 0.98
CLEDFLDNLFSSGYFKFQLV | inactive
CLIISRVVRSVTNIMEMNNG | 0.251 ± 0.45
CLLYCTYVMRLTMLKILVVI | 1.27 ± 0.63
CLNGGNFYRSLTRAKTNKNF | -0.258 ± 1.1
CLQMRSVSYVIMRFTGKLTW | 0.693 ± 0.32
CLSGGFMPTYKVIWRQGCYG | inactive
CLSRHLKNGPRMA | 0.495 ± 1
CLTSRQMMQKLMRYIKNDLG | -0.051 ± 0.32
CLVIRFILHLSCK | 0.587 ± 0.54
CLVYVQLWVARMSYPCVRFG | 0.214 ± 0.32
CLWSSVGRQTEWFSHEVNGG | 0.017 ± 0.43
CLYVTPYMLFYLLVSNGTEC | -1 ± 0.35
CMAHIYCWDICYNERWGFYI | 4.11 ± 0.052
CMHFVYNIKVRIIPDEYDHS | 4.6 ± 0.091
CMVMLGSEQKFYMVVRPLKI | -0.085 ± 0.41
CNDHNNEYVNVSHTRRARL | 0.99 ± 0.24

Substance | amyloid nucleation score
CNFKIVSWVVNQVLFFSHFA | -1.37 ± 2.1
CNGAGNLEGDGF | 0.317 ± 0.33
CNILVTRFSNSREFNRCTWR | inactive
CNITWSFSDRLWY | 0.476 ± 0.27
CNQMSFFTEALVNKLHLFFT | inactive
CNVEAG | -1.55 ± 1.1
CNVKCLRVARFDFVYRFFLP | inactive
CPAWFFCIVKKYFKTVAQTV | 0.291 ± 0.48
CPCWLLMLFPCISYRRNLIV | -0.605 ± 0.46
CPIWPVCWEVNHVPYLTKDI | 0.58 ± 0.79
CPYRYYHTNLFMVIFLYRGM | -0.349 ± 0.47
CQCGMVGVL | -0.005 ± 0.45
CQFYWLTGPCMRRLRCGSVQ | 0.052 ± 0.36
CQIFGNFWWKCIVGCRQIRF | inactive
CQYRTTYSASFLNRS | inactive
CQYVCRDNFDYQTSSSCGCD | inactive
CRKFQWLSLM | -0.921 ± 1.7
CRLCVLCAMYGI | 0.939 ± 0.26
CRMRMLRKYVFLD | -0.427 ± 0.61
CRPVGRRYKWFTFSGGLLLR | 1.14 ± 0.9
CRSSSERSIFG | 0.439 ± 0.53
